According to the DeepSol protein solubility set:

experiment: soluble on expression in E. coli; label from the status in PepcDB or PDB records

| Sequence | soluble on expression in E. coli |
| --- | --- |
| MSLSLIKVGLVGIGAQMQENLLPSLLQMQDIRIVAACDSDLERARRVHRFISDIPVLDNVPAMLNQVPLDAVVMAGPPQLHFEMGLLAMSKGVNVFVEKPPCATLEELETLIDAARRSDVVSGVGMNFKFARPVRQLREMTQVDEFGETLHIQLNHYANKPRAPLWGLDSTLRSFLLAQAIHTIDLAITFGDGELRRVQSSVQRHDDALIVRADMAFSSGATASLLAGTSFPYFEFDMKLVSSSSTLVELDNLWNITLHEPEHATRPTGAAKRWRGAWQPGPLDSGYERSGYHGELHQFFQAIREHRRFEADFASLLPTYRVIEEICSADAVAQGLQNAHSRIRTGIESLSEGHHHHHH | soluble |
| MGSDKIHHHHHHMIHVGTCGFCEKQDKYFQDFSTVEIQQTFYKILQESTLKKWREKAPEGFVFSIKAFQGVTHPPNSPTWRRSNVKPSKNVGLLRPTNEVIHYWKITLNEAKILNARFILIQLPRSFKESEESFSNAERFFSIIDRGEFEIAVELRGWSERGIKKFVREFDVIDVVDPMVRVPLHGGGVNYYRLHGKYENGRIIYSYKYSDEELLKIRERVLSFHVEESYVYFNNSNMCEDAQRFKQLIMKF | not soluble |
| MKKYDVIVVGAGISGLLAALTLSKHGKKVLVLEKGQHLGGNCNSYIVDGYQVDTGAHAITHLIEGPLPRLMDNYFDFLPVFEDYGYYYVRTENALIKVPSNLKDFVTFDVLPRKDRLILSQTLTKALTLSSFGIDLSDQSVYDFLPKNLCKDTYDFVNTISAFLSGKSMKETSAQRILSGSSFVRDSITQEQFDAMIGKFEPKKRQSTESILSSILPYHLHASLQARVDKVAQPFTSLERLATNKVNYSQGYPRKGLKALLNAILYSFPDTVEIKSECEVTGILVESEKVYGVEADEIYLADLIIYTGFATDLPELIKDLPQAYIEELKGIVHTKSLTIWLGLKEELPEFKYTGSEIWFKDFAYWAMPISNYDPSLAPKDKQLVGFSFVIDSEQTEEHELKKAYDTIFRALPNIEKYIDMQHEQIMIPEKAAVTINGKFSDIRTPVKNLYIAGTDTDRRSMGITRAAYSIIELLKILNEDGNLHLEHHHHHH | not soluble |
| MGSDKIHHHHHHMTTTIQALEKHLQVRLLNRTTRKISLTPDGAVYYDRTARILADVADIESSFHDAERGPRGQLRIDVPVSIGRLILIPRLRDFHARYPDIDLVIGLNDRPVDLVGEAVDCAIRVGELKDSSLIARRIGTFQCATAASPIYLEKYGEPTSIEDLQKNHKAIHFFSSRTGRNFDWDFVVDDLIKSVSVRGRVSVNDGDAYIDLALQGFGIIQGPRYMLTNHLESGLLKEVLPQWTPAPMPISAVYLQNRHLSLKVKVFVDWVAELFAGCPLLGGTALPFDQKCEFACDKETGHEYTIRTLVEQHNIAEAYTLKT | not soluble |
| MVYLKGQIRKALSGFYYVYADGETYQTRARGNFRNRKITPLVGDEVLFESDNLTDGYVLEILPRRNELVRPPVANVDLGVVVMSMVSPNFSFNLLDRFLVSLEYKDIEPVIYLTKVDLLDEPQRQQVTEIKQIYEALGYAVIASEDVEATKELERFFPERLTVFMGQSGAGKSTLLNQISPELQLATAEISQSLGRGKHTTRHVELIPLYDGLVADTPGFSAIDFLEMEAVELPKQFPEFVAAASHCKFRECMHHKEPGCEVKRQVEAGTIATSRYENYLQFLMEIENRRPVYKKKS | not soluble |
| HGTMEVPINRTYSCSKEGAESPKTPACQEAKRVGGTQAMYDWNGINQNPPGDNHQSVVPDGTLCGGGQAKFKGFNLARTDWPTTNIVPDAKGNFEFIYTATMPHATKYFKFYVTRNGWNPNQPLKWSDLEPFGTYNGNPPLDDKQRYHMTMKLPTGKTGRHIIYNVWKRSDSEEAFYSCSDVNFTN | not soluble |
| LYPEEILDTHWELWKKTHRKQYNNKVDEISRRLIWEKNLKYISIHNLEASLGVHTYELAMNHLGDMTSEEVVQKMTGLKVPLSHSRSNDTLYIPEWEGRAPDSVDYRKKGYVTPVKNQGQCGSCWAFSSVGALEGQLKKKTGKLLNLSPQNLVDCVSENDGCGGGYMTNAFQYVQKNRGIDSEDAYPYVGQEESCMYNPTGKAAKCRGYREIPEGNEKALKRAVARVGPVSVAIDASLTSFQFYSKGVYYDESCNSDNLNHAVLAVGYGIQKGNKHWIIKNSWGENWGNKGYILMARNKNNACGIANLASFPKM | soluble |
| MLSSPLRVAVVCVSNINRSMEAHSILRRKGLSVRSFGTESHVRLPGRRPNHPVVYDFATTYKEMYNDLLRKDRECYTHNGILHILGRNERIKPGPERFQECTEFFDVIFTCEERVYDTVVEDLCSREQQTFQPVHVINMDIKDTLEGAILGAFLICEICQCLQQSDDMEDSLEELLLQMEEKAGKSFLHTVCFYLEHHHHHH | soluble |
| MSAKQKELERLLELKKKQEEQQVLNQKDMLERIKLENKYMEFLQMTSQQMEEELKKRGPVKEVEVKGKDIDPIIADYKKLYSKESWYKEPETKDGKTHLTFPSQEAAGTFFKDQAEKNRSFIVIDAATNKVLAYSNGDGKLYNGNGSLYQGGDFKASKEDFTSFKMPEREEPKMGMQL | not soluble |
| MGSDKIHHHHHHMTAQTHNDVAVCWNQNANQWTSDVRNGYDVYRDFFTLPAFLQFLPTMADLNVIDFGCGEGSNTRHFAQMGAKVVGIDISNGLIEHARQAERVDPVGITYKIVSYSSDTGFPASSFDAVVSTMALMDGPDLQGAMHEAYRLLRPGGFVAFSVLHPCFITPGWQWQKDENGQTTGLCTSRYFDKSGFTENWKFGNRPKDENVAPFAVPRFPRTIGDYINAVASVGFRISKIEEPQPTEEACKAIPQLRRWRDLGAFLLLVIAERPK | not soluble |
| MSLSHSEAGQAASVRRVLAVIPARGGSKGVPAKNLLPVGGVPLVARAVRECRATRLVTDVVVSTDDHAIAAAAREAGAEVVLRPAAIAGDTATSEAAVLHAMDTHEALHGAAVDVVLLVQCTSPFIVREDVDGVVHAIVGKGADTALTVAPFHGFVWRDADDAPGALGAERAAVEGGTDTLVTGTATSGGYGINHDKSFRPRRQDRPQDLLETGAVYGMDATGFREARHRFFGRTELVRTDPARVLEIDDPHDLARARALAPLFDANRPGALPTAEDIDAVVLDFDGTQTDDRVLIDSDGREFVSVHRGDGLGIAALRKSGLTMLILSTEQNPVVAARARKLKIPVLHGIDRKDLALKQWCEEQGIAPERVLYVGNDVNDLPCFALVGWPVAVASAHDVVRGAARAVTTVPGGDGAIREIASWILGPSLDSLDKEGHHHHHH | soluble |
| MGSSHHHHHHSSGLVPRGSHMALGSGVVPFENLQIEEGIITDAEVARFDNIRQGLDFGYGPDPLAFVRWHYDKRKNRIYAIDELVDHKVSLKRTADFVRKNKYESARIIADSSEPRSIDALKLEHGINRIEGAKKGPDSVEHGERWLDELDAIVIDPLRTPNIAREFENIDYQTDKNGDPIPRLEDKDNHTIDATRYAFERDMKKGGVSLWG | soluble |
| MADKSAEKERLFNEWFTASYDRLRGTLRRYGMLDEDNFHDTYLFVRRQVLVPGKDITDYDAYFIGCYKKAALVKIKRENRYAHPEDDFFLRCGEEAKFLSEDDLNGCERLVRDILRFVRQKFSYEEYRMFMLRFYEAQFSFKALAECMGISASAISQKVCRIVDAVRTHSGFAWRSQMLAVESFMY | not soluble |
| MSLQPTAGETTFERVRRTRKLRIGAVNGGAPYYYRDLASGQWKGFYIDICKALADEMECELDVTETTWGNSVLDLQAGKTDVFFGLNPTPKRALVVDFSVPVFANAFTFITRKGFERKTWAEMNDPAVRIAVDAGSSHDAVVTRLAPKAQITRLKGADDATAALQAGRVDAQCLVFILSLTVLKKNPALGQFTLPTPIFSTTSNAGFRREADKTWRDYVSTWIEFNKGMGFIRSAIIGNLESEGHHHHHH | not soluble |
| MVVKEILRLLFLLAMYELGKYVTEQVYIMMTANDDVEAPSDYEKIRAEVSWLEHHHHHH | not soluble |
| MGSDKIHHHHHHMMPNPLLDIRIGTMVRANLEDPAAYVRQILPLGFESIQPFFWQTLGGKDLPRLAGEIREAIGDADVVVSSLGVFGNPLESGEVDRGVLAAWETVIDNAHLFGASMVSGFTGRLRGKKLTDSLPRFREVWGPLAKRAADKGVRIAFENCAMDGNWAVGDWNIAHNPDAWELMFNELPDDNLGLEWEPCHQLVYLIDPIPQIRKWAPRIFHVHGKDATVRWDVIREHGVFGRLPFVQMRTPGFGDSDWTRVISELRLAGYKGAIDIEGWHDPVYRDDLEITGQARALEYLKQCRGGASYLQNPT | not soluble |
| MGSSHHHHHHSSGLVPRGSHMDLSAASHRIPLSDGNSIPIIGLGTYSEPKSTPKGACATSVKVAIDTGYRHIDGAYIYQNEHEVGEAIREKIAEGKVRREDIFYCGKLWATNHVPEMVRPTLERTLRVLQLDYVDLYIIEVPMAFKPGDEIYPRDENGKWLYHKSNLCATWEAMEACKDAGLVKSLGVSNFNRRQLELILNKPGLKHKPVSNQVECHPYFTQPKLLKFCQQHDIVITAYSPLGTSRNPIWVNVSSPPLLKDALLNSLGKRYNKTAAQIVLRFNIQRGVVVIPKSFNLERIKENFQIFDFSLTEEEMKDIEALNKNVRFVELLMWRDHPEYPFHDEY | soluble |
| MTIAYEHPNALTYLKSMKENIIRFANKKSLYTQHDEYIKNVFMDERVNLKYHCESIVSYIAEAFIHYSVWDHSHAYYPGRPSQQTARTDALEGTSRTLPTLAAWLHANGRSNTIITGLNQQPILVPEILRKAFLAGTNPQHKGYWGTLHHCDQRVCEGADLALALWMSKEWVWDCFSIDEKCQIITWFKQVNQCETVDNNWHLFVLTVQIVLKALTGEDEVQYDKYERVKEFYVGDGWFRDGAKGNYDYYNAWAFHYSLYWFTQIDVDFDSTFINNALSDFVGNYRYFFGKEGFPFFGRSACYRLAAAAPLLAAVDLQSDKITIGEAKRAFHCNLKYFISNGALKAGLPTQGLFDEDVRLVDNYSGPASSLWSLRALNIALFCGEKINLWQAEEAPLAIEQGNFELDISAINMKILGVYETQEVIAIFKNEYTQDQSPLSRRLLAPSLEHHHHHH | soluble |
| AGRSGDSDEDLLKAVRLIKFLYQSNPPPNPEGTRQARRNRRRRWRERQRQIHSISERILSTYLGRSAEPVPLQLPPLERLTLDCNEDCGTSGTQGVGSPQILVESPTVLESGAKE | soluble |
| MGRRGMWYPLAAMKGVLEALHQGDYDTAIDLLTRKALFGREREAKEAWLLLAEVYALYGEEGLEKAHHALEEAYALGGLEYDPLYRSLLAELLALEGRPEREVLPLFLPSRDPRVRYHQAQALFYLGRLEEALEALEAGLPPHLAWRAEGLKGRILERLGRHGEAALAYERGAELALGLERYWLLLDAAAMWLEAGEGERALLALKEAEAAVGEEDPEDAATRHYLLARAHLLLGNPGLALEEIRKALALEEESGHKAYGTPLVEGQALLQLGRYEEAMASFREALARADAGERPHVLHEMGVAALDHGAYPEAEEHLRALVREEGYPYLAQAYADLAEALYRQGRYQEAEAAAREAVARGAVAAGELVLGHVAYDLLHLEEALEHYRKAAESAEEGSREWVGAQEMVVDTLAQLGYRFPEEMVRRGQAVLPYLHPADEWHAALTAYVERAQALLREGKRLN | soluble |
| MGSDKIHHHHHHMNAPAGGLSPALTPEAVADTTAMATETHILNPRFYTTDFDELDRVDVTPVRKDWDALIAEMKADPNKAHFKKTEAWDRIDWDGMDPALRVEFIDFLVSSCTAEFSGCVLYKEMKRRGSNPDIRELFNYMARDEARHAGFINDALREAGVAVNLGFLTKAKKYTYFRPKFIYYATYLSEKIGYARYITIYRHLEANPEHRFHPIFKWFKEWCNDEFRHGEAFALLMKTDPKLTDTTVNRLWIRFFLTAVYSTMWVRDHARPEFHKALGVDIDWYDQEVYRKTSEIARQIFPVELDIDHPRWKPALRRMNEAFLRIDRGTRRGGIAGRLEKALGGAQALAAFVSLYTIPVRTHTLPENVRLEPSY | not soluble |
